The results in this text go back to paper PMC4866589.

Substrate in the data set: Nc1ncnc2c1ncn2[C@@H]1O[C@H](COP(=O)(O)OP(=O)(O)OP(=O)(O)O)[C@@H](O)[C@H]1O
In words: ATP Km by microfluidic mobility shift kinase assay. The format is biochemical, Homo sapiens. The note with it: Mg2+ ([…] MgCl2 in the assay buffer).

As usually defined, the Km is the substrate concentration at which the rate is half of its maximum.

B1: hTSSK2 (testis-specific serine/threonine kinase 2) (Homo sapiens) (protein)
chain: MDDATVLRKKGYIVGINLGKGSYAKVKSAYSERLKFNVAVKIIDRKKTPTDFVERFLPREMDILATVNHGSIIKTYEIFETSDGRIYIIMELGVQGDLLEFIKCQGALHEDVARKMFRQLSSAVKYCHDLDIVHRDLKCENLLLDKDFNIKLSDFGFSKRCLRDSNGRIILSKTFCGSAAYAAPEVLQSIPYQPKVYDIWSLGVILYIMVCGSMPYDDSDIRKMLRIQKEHRVDFPRSKNLTCECKDLIYRMLQPDVSQRLHIDEILSHSWLQPPKPKATSSASFKREGEGKYRAECKLDTKTGLRPDHRPDHKLGAKTQHRLLVVPENENRMEDRLAETSRAKDHHISGAEVGKAST
Consider B1, for which the Km was found to be 2.17 ± 0.04 µM.
